Measured values taken from PMC7679967.

Molecular target: human Hsp90β (HSP90AB1) (human) (UniProt P08238)
Experiment: SEC-MALS

Sequence of human Hsp90β (HSP90AB1), P08238 1-724 (natural protein; other documents disagree on this pair) (P08238 whole entry): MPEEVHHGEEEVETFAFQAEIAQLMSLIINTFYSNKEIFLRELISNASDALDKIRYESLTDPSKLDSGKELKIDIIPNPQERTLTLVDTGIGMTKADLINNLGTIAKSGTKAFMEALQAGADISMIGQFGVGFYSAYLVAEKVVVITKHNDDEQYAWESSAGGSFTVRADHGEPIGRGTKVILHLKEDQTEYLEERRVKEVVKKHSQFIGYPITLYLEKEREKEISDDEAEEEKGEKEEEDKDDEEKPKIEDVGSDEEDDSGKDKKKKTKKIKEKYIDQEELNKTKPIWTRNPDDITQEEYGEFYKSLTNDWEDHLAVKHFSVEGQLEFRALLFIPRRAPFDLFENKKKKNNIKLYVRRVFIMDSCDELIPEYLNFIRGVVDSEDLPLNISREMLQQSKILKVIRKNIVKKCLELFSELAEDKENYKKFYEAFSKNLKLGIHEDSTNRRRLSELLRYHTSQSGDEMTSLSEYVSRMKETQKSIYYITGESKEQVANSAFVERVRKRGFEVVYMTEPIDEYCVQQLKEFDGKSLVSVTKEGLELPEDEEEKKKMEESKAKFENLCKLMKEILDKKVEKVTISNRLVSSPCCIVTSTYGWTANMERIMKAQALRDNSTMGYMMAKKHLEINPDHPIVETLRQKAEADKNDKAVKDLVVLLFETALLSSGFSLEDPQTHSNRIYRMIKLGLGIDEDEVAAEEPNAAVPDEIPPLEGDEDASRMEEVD

## human Hsp90β (HSP90AB1), P08238 1-724 (natural protein; other documents disagree on this pair)
  stoichiometry N: 2
